According to US20240287172A1 (SCIRHOM, published 2024):
Substitutions are numbered along the chain they refer to.

B1: antibody 16 (antibody, V domains shown)
VH: QVTLKESGPGILQPSQTLSLTCSFSGFSLSTFALGVGWIRQPSGRGLEWLAHIWWDDDKYYNPALKSRLTISKDTSKNHVFLKIANVDTADTATYYCARITTYYYGMDYWGQGTSVTVSS
VL: DIVLSQSPATLSVTPGDSVSLFCRASQSIGNHLHWYQQESHASPRLLIKYASQSISGIPSRFSGSGSGTDFTLSINSVETEDFGMYFCQQSYNWPLTFGAGTKLELK
notes: mouse IgG, kappa light chain; also called clone #16; purified antibody 16
B2: antibody 5 (antibody, V domains shown)
VH: QVTLKESGPGILQPSQTLSLTCSFSGFSLSTFGMGVGWIRQPSGKGLEWLAHIWWDDEKYYNSALKSRLTISKATSKNQAFLKIANVDTADTATYYCARISNYGSNYWYFNVWGTGTTVTVSS
VL: QVVLTQSPALMSASPGEKVTMTCSAGSSVSCMYWYQQKPGSSPRVLIYDTSNLASGVPARFTGSGSGTSYSLTISRMEAEDAASYYCQQWNSYPLTFGAGTKLELK
notes: mouse IgG, kappa light chain; also called clone #5; purified antibody 5
B3: antibody 22 (antibody, V domains shown)
VH: B2 VH with A80V
VL: B2 VL with C31Y, S84T
notes: mouse IgG, kappa light chain; also called clone #22; purified antibody 22
B4: antibody 3 (antibody, V domains shown)
VH: QVTLKESGPGILQPSQTLSLTCSFSGFSLTTFAMGIGWVRQPSGKGLEWLAHIWWDGEKYNNPVLKSRLTISKDTSKNQVFLRIANVDTPDTATYYCARISSIYYIIDNWGQGTSVTVSS
VL: B1 VL with S5T, D17H, F22S, G30S, H32N, Q38K, E39K, A42E, A51V
notes: mouse IgG, kappa light chain; also called clone #3; purified antibody 3
B5: antibody 43 (antibody, V domains shown)
VH: B2 VH with T3A, P42S, H52N, E58D, S63P, A74D, T75A, S101G, N111D
VL: QIVLTQSPAIMSASPGERVTMTCSANSRISYMYWYQQKPGSSPRLLIYDTSNLASGVPVRFSGSGSGTSYSLTISRMEAEDAATYNCQQWSSYPLTFGAGTKLELK
notes: mouse IgG, kappa light chain; also called clone #43; purified antibody 43
B6: antibody 44 (antibody, V domains shown)
VH: B2 VH with G44E, E58D, S63P, A74D, A80I, A85T, D91E, A98S, S101G, N111D
VL: QIVLTQSPAVMSASPGEKVTMTCTASSSVYYMYWYQQTPGSSPRLLIYDTSNLASGVPVRFSGSGSGTSYSLTISRMEAEDAATYYCQQWNTYPLTFGAGTKLELK
notes: mouse IgG, kappa light chain; also called clone #44; purified antibody 44
B7: antibody 48 (antibody, V domains shown)
VH: QVQLQQSGTELVRPGTSVKVSCKASGYAFTNYLIEWVKQRPGQGLEWIGVINPGSGFTKYNEKFKGKATLTADKSSSTVYMHLSSLTSEDSAVYFCARGLYRAMDYWGQGTSVTVSS
VL: DIQMTQSPASQSASLGESVTITCLASQTIATWLAWYQQKPGKSPQLLIYGATTLADGVPSRFSGGGSGTKFSFKISSLQAEDFVSYYCQQLYSTPYTFGGGTKLEIK
notes: mouse IgG, kappa light chain; also called clone #48; purified antibody 48

Legend:
hiR2-FL-K536A-T7 = target: T1, hiR2-FL-K536A-T7 (human, UniProt Q6PJF5 1-856); assay: FACS on MEF-DKO cells expressing the variant, 3 µg/ml antibody
T1 construct: on MEF-DKO cells
T1 sequence: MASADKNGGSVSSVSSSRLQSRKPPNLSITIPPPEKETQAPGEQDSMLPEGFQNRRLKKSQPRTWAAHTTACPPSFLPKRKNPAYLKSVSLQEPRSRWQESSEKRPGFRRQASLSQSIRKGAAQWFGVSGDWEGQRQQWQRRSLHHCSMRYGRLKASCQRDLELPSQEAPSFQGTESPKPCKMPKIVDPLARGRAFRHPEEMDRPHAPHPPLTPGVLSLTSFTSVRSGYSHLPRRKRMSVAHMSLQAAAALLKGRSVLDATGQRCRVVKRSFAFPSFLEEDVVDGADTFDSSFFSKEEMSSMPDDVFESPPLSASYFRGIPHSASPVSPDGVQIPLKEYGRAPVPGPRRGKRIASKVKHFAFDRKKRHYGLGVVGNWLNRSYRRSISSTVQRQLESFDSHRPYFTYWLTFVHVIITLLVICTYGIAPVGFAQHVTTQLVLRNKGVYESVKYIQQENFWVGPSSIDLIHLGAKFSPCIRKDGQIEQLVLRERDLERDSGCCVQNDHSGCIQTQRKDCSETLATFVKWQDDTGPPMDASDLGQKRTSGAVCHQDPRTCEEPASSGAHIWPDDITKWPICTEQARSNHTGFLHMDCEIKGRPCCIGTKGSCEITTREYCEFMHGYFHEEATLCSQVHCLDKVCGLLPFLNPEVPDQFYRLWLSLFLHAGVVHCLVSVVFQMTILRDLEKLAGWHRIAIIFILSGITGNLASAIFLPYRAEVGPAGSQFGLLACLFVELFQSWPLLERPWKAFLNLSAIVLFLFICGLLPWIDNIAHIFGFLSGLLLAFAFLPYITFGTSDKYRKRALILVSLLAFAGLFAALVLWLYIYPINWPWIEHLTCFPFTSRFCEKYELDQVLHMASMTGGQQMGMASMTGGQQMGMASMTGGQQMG
Method in brief: (§1)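 Primary stain: antibody 3 μg/ml, 1 h on ice; controls buffer alone. Secondary: PE anti-mouse IgG F(ab′)2 1:100, 1 h on ice, light-protected. Washes at 4° C; read by flow cytometry.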

hiR2-FL-R554A-T7 = target: T2, hiR2-FL-R554A-T7 (human, UniProt Q6PJF5 1-856); assay: as above
T2 sequence: T1 sequence with A536K, R554A
Method in brief: as §1

Binder	loss of binding vs wild type (hiR2-FL-K536A-T7) [%]	loss of binding vs wild type (hiR2-FL-R554A-T7) [%]
B1	≥ 60	
B2	≥ 95	≥ 60
B3		≥ 30
B4	≥ 60	
B5	≥ 60	≥ 30
B6		≥ 60
B7	≥ 30	≥ 30
